{"source": "paper PMC13038412", "about": "“Hetero-oligomerization drives structural plasticity of eukaryotic peroxiredoxins” (Nature Chemical Biology, 2026)", "key": {"[1]": {"target": "roGFP2-AtBAS1B (A. thaliana)", "assay": "native gel or EMSA; clear native PAGE of lysates from Δtsa1Δtsa2 yeast coexpressing a roGFP2-peroxiredoxin fusion with an empty vector or an unfused peroxiredoxin; imaged for GFP fluorescence"}, "[2]": {"target": "roGFP2-LiPrx1 (L. infantum)", "assay": "native gel or EMSA; clear native PAGE of lysates from Δtsa1Δtsa2 yeast coexpressing a roGFP2-peroxiredoxin fusion with an empty vector or an unfused peroxiredoxin; imaged for GFP fluorescence"}, "[3]": {"target": "T1, His6-Tsa2-EPEA (S. cerevisiae)", "T1 sequence (Q04120 1-196, looked up)": "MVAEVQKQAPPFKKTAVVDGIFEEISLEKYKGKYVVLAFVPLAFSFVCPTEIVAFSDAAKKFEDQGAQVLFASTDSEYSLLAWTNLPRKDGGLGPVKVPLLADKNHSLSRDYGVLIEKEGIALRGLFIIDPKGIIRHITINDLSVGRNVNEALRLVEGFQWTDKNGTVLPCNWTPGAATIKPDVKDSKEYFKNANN", "assay": "MALDI-TOF MS of disulfide-linked dimers; purified homo-oligomers and three tandem-purified hetero-oligomer fractions in 0.1% TFA, DHAP matrix, linear positive mode; dimers reducible with DTT"}, "[4]": {"target": "T1, His6-Tsa2-EPEA (S. cerevisiae)", "assay": "negative-stain EM; 0.02 mg/ml purified sample in 10 mM HEPES/NaOH pH 8, 137 mM NaCl, 2 mM KCl; 2% uranyl acetate; hetero-oligomer: the 0.88 mol/mol fraction"}, "[5]": {"target": "the molecule itself", "assay": "negative-stain EM; 0.02 mg/ml purified sample in 10 mM HEPES/NaOH pH 8, 137 mM NaCl, 2 mM KCl; 2% uranyl acetate; hetero-oligomer: the 0.88 mol/mol fraction"}, "[6]": {"target": "the molecule itself", "assay": "MALDI-TOF MS of disulfide-linked dimers; purified homo-oligomers and three tandem-purified hetero-oligomer fractions in 0.1% TFA, DHAP matrix, linear positive mode; dimers reducible with DTT"}, "His6-Tsa2": {"target": "T2, His6-Tsa2 (S. cerevisiae, UniProt Q04120 1-196)", "T2 construct": "Tsa2, Prx1/AhpC-type peroxiredoxin of Saccharomyces cerevisiae; TSA2 from pET15b/His6-TSA2; calculated mass of His6-Tsa2 23.8 kDa; also called His6-tagged Tsa2; His-Tsa2; source: E. coli SHuffle T7 Express, purified (Ni-NTA) from pET15b; or coexpressed with Strep-Tsa1 / Strep-Tsa1ΔCR from pCOLADuet and tandem purified (Ni-NTA, StrepTactin); not shown: His6, N-terminal, kept", "T2 sequence (looked up)": "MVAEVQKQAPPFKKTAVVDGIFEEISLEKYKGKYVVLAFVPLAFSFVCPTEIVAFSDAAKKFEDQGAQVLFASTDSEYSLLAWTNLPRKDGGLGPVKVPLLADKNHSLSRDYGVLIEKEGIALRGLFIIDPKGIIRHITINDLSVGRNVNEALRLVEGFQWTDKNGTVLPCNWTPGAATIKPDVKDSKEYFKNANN", "assay": "pull-down; both genes coexpressed from one pCOLADuet plasmid in E. coli; tandem-affinity purification Ni-NTA then StrepTactin, or vice versa; eluates on reducing SDS-PAGE, western blot (semiquantitative, calibrated with individually purified proteins)", "details": "partners not purified"}, "[7]": {"target": "the molecule itself", "assay": "native gel or EMSA; clear native PAGE (3-12%) of yeast lysates, imaged for GFP fluorescence; roGFP2 fusions expressed from the genomic loci; cells untreated or treated with 1 mM H2O2 for the indicated times; lysis with 20 mM NEM"}, "[8]": {"target": "the molecule itself", "assay": "native gel or EMSA; clear native PAGE of lysates from Δtsa1Δtsa2 yeast coexpressing a roGFP2-peroxiredoxin fusion with an empty vector or an unfused peroxiredoxin; imaged for GFP fluorescence"}, "[9]": {"target": "the molecule itself", "assay": "mass photometry; 5 µM purified samples incubated 15 min at 20, 30, 40 or 45 °C, diluted 25x into 10 mM HEPES/NaOH pH 8, 137 mM NaCl, 2 mM KCl; Refeyn OneMP; disulfide-linked oxidation form"}}}
{"molecule": "roGFP2-AtBAS1B (enzyme)", "values": [{"measurement": "stoichiometry N", "setting": "[1]", "result": 10}]}
{"molecule": "roGFP2-LiPrx1 (enzyme)", "values": [{"measurement": "stoichiometry N", "setting": "[2]", "result": 10}]}
{"molecule": "His6-Tsa2-EPEA (enzyme)", "values": [{"measurement": "stoichiometry N", "setting": "[3]", "result": 2}, {"measurement": "stoichiometry N", "setting": "[4]", "result": 10}]}
{"molecule": "Strep-Tsa1 (enzyme, S. cerevisiae, UniProt P34760 1-196, looked up, Tsa1, Prx1/AhpC-type peroxiredoxin of Saccharomyces cerevisiae; TSA1 subcloned from pET15b/His-TSA1; calculated mass of Strep-Tsa1 22.9 kDa; Dimer-decamer equilibrium; also called Strep-tagged Tsa1; Tsa1 homo-oligomer; source: E. coli SHuffle T7 Express, purified (StrepTactin) from pET45b; or coexpressed with His6-Tsa2 / His6-Tsa2-EPEA from pCOLADuet-1 and tandem purified (Ni-NTA, StrepTactin); …) MVAQVQKQAPTFKKTAVVDGVFDEVSLDKYKGKYVVLAFIPLAFTFVCPTEIIAFSEAAKKFEEQGAQVLFASTDSEYSLLAWTNIPRKEGGLGPINIPLLADTNHSLSRDYGVLIEEEGVALRGLFIIDPKGVIRHITINDLPVGRNVDEALRLVEAFQWTDKNGTVLPCNWTPGAATIKPTVEDSKEYFEAANK", "values": [{"measurement": "stoichiometry N", "setting": "[5]", "result": 10}, {"measurement": "stoichiometry N", "setting": "[6]", "result": 2}, {"measurement": "stoichiometry N", "setting": "His6-Tsa2", "result": "~1", "unit": "Strep-Tsa1 per His6-Tsa2"}]}
{"molecule": "roGFP2-Tsa1 (enzyme, S. cerevisiae, UniProt P34760 1-196, looked up, Tsa1 of Saccharomyces cerevisiae, roGFP2-tagged version replacing TSA1 at its endogenous locus; source: S. cerevisiae, gene integrated at the TSA1 genomic locus under the native promoter, in lysate) MVAQVQKQAPTFKKTAVVDGVFDEVSLDKYKGKYVVLAFIPLAFTFVCPTEIIAFSEAAKKFEEQGAQVLFASTDSEYSLLAWTNIPRKEGGLGPINIPLLADTNHSLSRDYGVLIEEEGVALRGLFIIDPKGVIRHITINDLPVGRNVDEALRLVEAFQWTDKNGTVLPCNWTPGAATIKPTVEDSKEYFEAANK", "values": [{"measurement": "stoichiometry N", "setting": "[7]", "result": 2}]}
{"molecule": "roGFP2-AtBAS1A (enzyme, A. thaliana, UniProt Q96291 66-266, looked up, AtBAS1A, Prx1/AhpC-type peroxiredoxin of the chloroplast stroma of Arabidopsis thaliana; source: Δtsa1Δtsa2 yeast, expressed from a plasmid, in lysate) KAQADDLPLVGNKAPDFEAEAVFDQEFIKVKLSDYIGKKYVILFFYPLDFTFVCPTEITAFSDRHSEFEKLNTEVLGVSVDSVFSHLAWVQTDRKSGGLGDLNYPLISDVTKSISKSFGVLIHDQGIALRGLFIIDKEGVIQHSTINNLGIGRSVDETMRTLQALQYIQENPDEVCPAGWKPGEKSMKPDPKLSKEYFSAI", "values": [{"measurement": "stoichiometry N", "setting": "[8]", "result": 2}]}
{"molecule": "His6-GFP-TEV-Tsa2 (enzyme, S. cerevisiae, UniProt Q04120 1-196, looked up, Tsa2 of Saccharomyces cerevisiae, behind His6, GFP and a TEV site; Probably made in E. coli (AhpC contamination was detected); also called Tsa2 with an N-terminal GFP tag; not shown: His6, N-terminal, kept; GFP, N-terminal, kept) MVAEVQKQAPPFKKTAVVDGIFEEISLEKYKGKYVVLAFVPLAFSFVCPTEIVAFSDAAKKFEDQGAQVLFASTDSEYSLLAWTNLPRKDGGLGPVKVPLLADKNHSLSRDYGVLIEKEGIALRGLFIIDPKGIIRHITINDLSVGRNVNEALRLVEGFQWTDKNGTVLPCNWTPGAATIKPDVKDSKEYFKNANN", "values": [{"measurement": "binding result", "setting": "[9]", "result": "binds"}]}
